# Assay results as given in the RNAGym collection of RNA variant scans (doi:10.7554/elife.90254).
# B1: LINE1-full (parent)
# chain: UACGUAGGUGGUUUUCCCCUGAUAGUGCUAAGGGGGCCUGGAAGUUUGGACUGGGCAGAGCUCAACACAGCGUGGCAAAGUGGCUGUGGCUAGACUGCCUCUCUGGAUUCCUCGUCACUCAGCAGGGCAUCUCUGAGAGAAAUGCC
# Variants of: B1
# Test: self-cleavage, relative activity (ratio to wild type); higher = more cleavage; in vitro, sequencing; the parent is a self-cleaving ribozyme
row,Variant,self-cleavage
1,UACGUAGGUGGUCUUCCCCUGAUAGUGCUAAGGGGGCCUGGAAGUUUGGACUGGGCAGAGCUCAACACAGCGUGGCAAAGUGGCUGUGGCUAGACUGCCUCACUGGAUUCCUCGUCACUCAGCAGGGCAUCUCUGAGAGAAAUGCC [U13C U102A],1.73
2,UACGUAGGUGGUUUUCCCCUGAUAGUGCUAAGGGGGCCUGGAAGUUUGGACUGGGCAGAGCUCAACACAGCCCGGCAAAGUGGCUGUGGCUAGACUGCCUCUCUGGAUUCCUCGUCACUCAGCAGGGCAUCUCUGAGAGAAAUGCC [G72C U73C],1.13
3,UACGUAGGUGGUUUUCCCCUGAUAGUGCUAAGAGGGCCCGGAAGUUUGGACUGGGCAGAGCUCAACACAGCGUGGCAAAGUGGCUGUGGCUAGACUGCCUCUCUGGAUUCCUCGUCACUCAGCAGGGCAUCUCUGAGAGAAAUGCC [G33A U39C],1.16
4,UACGUAGGCGGUUUUCCCCUGAUAGUGAUAAGGGGGCCUGGAAGUUUGGACUGGGCAGAGCUCAACACAGCGUGGCAAAGUGGCUGUGGCUAGACUGCCUCUCUGGAUUCCUCGUCACUCAGCAGGGCAUCUCUGAGAGAAAUGCC [U9C C28A],1.16
5,UACGUAGGUGGUUUUCCCCUGAUAGUGCUAAGGGGGCCUGGAAGUUUGGACUGGGCAGAGCUCAACACAGCGUGGCACAGUGGCUGUGGUUAGACUGCCUCUCUGGAUUCCUCGUCACUCAGCAGGGCAUCUCUGAGAGAAAUGCC [A78C C90U],0.03
6,UACGUAGGUAGUUUUCCCCUGACAGUGCUAAGGGGGCCUGGAAGUUUGGACUGGGCAGAGCUCAACACAGCGUGGCAAAGUGGCUGUGGCUAGACUGCCUCUCUGGAUUCCUCGUCACUCAGCAGGGCAUCUCUGAGAGAAAUGCC [G10A U23C],1.49
7,UACGUAGGUGGUUUUCCCCUGAUAGUGCUAAGGGGGCCUGGAAGUUUGGACUGGGCAGAGCUCAACACAGCGUGGCAUAGUGGCUGUGGCUAGACUGCCUCUCUGGAUACCUCGUCACUCAGCAGGGCAUCUCUGAGAGAAAUGCC [A78U U109A],1.84
8,UACGUAGGUGGUUUUCCCCUGAUAGUGCUAAGGGGGCCUGGAUGUUUGGACUGGGCAGAGCUCAACACAGCGUGGCAAAGUGGCUGUGGCUAGACUGCCUCUCUGGAUUCCUCGUCACUCAGCAGGGCAUCUCUGAGAGGAAUGCC [A43U A140G],1.02
9,UACGUAGGUGGUUUUCCCCUGAUAGUGCUAAGGGGGCCUGGAAGUUUGGACUGGGCAGAGCUCAACACAGCGUGGCAUAGCGGCUGUGGCUAGACUGCCUCUCUGGAUUCCUCGUCACUCAGCAGGGCAUCUCUGAGAGAAAUGCC [A78U U81C],1.6
10,UACGUAGGUGGUUUUCCCCCGAUAGUGCUAAGGGGGCCUGGAAGUUUGGACUGGGCAGAGCUCAACACAGCGUGGCAAAGUGGCUGUGGCUAGACUGCCUCUCUGGAUUCCUCGUCACUCAGCAGGGCACCUCUGAGAGAAAUGCC [U20C U130C],1.77
11,UACGUAGGUGGUUUUCCCCUGGUAGUGCUAAGGGGCCCUGGAAGUUUGGACUGGGCAGAGCUCAACACAGCGUGGCAAAGUGGCUGUGGCUAGACUGCCUCUCUGGAUUCCUCGUCACUCAGCAGGGCAUCUCUGAGAGAAAUGCC [A22G G36C],0.37
12,UACGUAGGUGGUUUUCCCCUGAUAGUGCUAAGGGGGCCUGGAAGUUUGGACUGGGCAGAGCUCAACACAGCGUGGCAAAGUGGCUGAGGCUAGACUGCCUCUCUGGAUUCCACGUCACUCAGCAGGGCAUCUCUGAGAGAAAUGCC [U87A U112A],0.07
13,UACGUAGGUGGUUUUCCCCUGAUAGUGCUAAGGGGGCCUGGAAGUUUGGACUGGGCAGAGCUCAACACAGUGUGGCAAAGUGGCUGUGGCUAGACUGCCUCUCUGGAUUCCUCGUCACUCAGCAGGGCAUCUCUGAGAGAUAUGCC [C71U A141U],1.46
14,UACGUAGGUGGUUUUCCCCUGAUAGUGCUAAGGGGGCCUGGAAGUUUGGACUGGGCAGAGCUCAACACAGCGUGGCAAAGUGGCUGUGGCUAGACUGCCUCUCUUGAUUCCUCGUCACUCAGCAGGGCAUCUCUGAGAGAAAUGCC [G105U],1.37
15,UACGUAGGUGGUUUUCCCCUGAUAAUGCUAAGGGGGCCUGGAAGUUUGGACUGGGCAGAGCUCAACACAGCGUGGCAAAGUGGCUGUGGCUAGACCGCCUCUCUGGAUUCCUCGUCACUCAGCAGGGCAUCUCUGAGAGAAAUGCC [G25A U96C],0
16,UACGUAGGUGGUUUUCCCCUGAUAGUGCUAAGGGGGCCUGGAAGUUUGGACUGGGCAGAGCUCAACACAGCGUGGCAAAGUGGCUGUGGCUAGACUGCCUCUCUGGAUUCCUCGUCACUCAGCAGGGCGUCUCUGGGAGAAAUGCC [A129G A136G],1.7
17,UACGUAGGUGGUUUUCCCCUGAUAGCGCUAAGGGGGCCUGGAAGUUUGGACUGGGCAUAGCUCAACACAGCGUGGCAAAGUGGCUGUGGCUAGACUGCCUCUCUGGAUUCCUCGUCACUCAGCAGGGCAUCUCUGAGAGAAAUGCC [U26C G58U],0.04
18,UACGUAGGUGGUUUUCCCCUGAUAGUGCUAAGGGGGCCUGGAAGUUUGGACUGGGCAGAGCUCAACACAGCGUGGCGAAGUGGCUGUGGCUAGACUGCCUCUCUGGAUUCCUCAUCACUCAGCAGGGCAUCUCUGAGAGAAAUGCC [A77G G114A],2.27
19,UACGUAGGUGGUUUUCCCCUGAUAGUGCUAAGGGGGCCUGGAAGUUAGGACUGGGCAGAGCUCAACACAGCGUGGCAAAGUGGCUGUGGCUAGACUGCCUCUCUGGAUUCCUCGUCACUCAGCAGGGCAUCUCUGAGAGAAAAGCC [U47A U143A],1.27
20,UUCGUAGGUGGUUUUCCCCUGAUAGUGCUAAGGGGGCCUGGAAGUUUGGACUGGGCAGGGCUCAACACAGCGUGGCAAAGUGGCUGUGGCUAGACUGCCUCUCUGGAUUCCUCGUCACUCAGCAGGGCAUCUCUGAGAGAAAUGCC [A2U A59G],0
